The text below walks through data of US20220227830A1, “QD DOSING OF GIP RECEPTOR AGONIST PEPTIDE COMPOUNDS AND USES THEREOF” (Takeda Pharmaceutical Company Limited, priority 2020, published 2022).

Starred links: 1 amine or outer side, 2 acyl side, 3 side chain; linkers in the order of their positions; H or OH if unused. Non-standard residues stand in square brackets, D forms with d. Groups on a side chain read outwards from the residue. No end group written: not given here. *: point of attachment. G2E3 = linker of 2 Gly and 3 Glu (read GGEEE); C15 diacid = O=C(O)CCCCCCCCCCCCCC(=O)*; γGlu = O=C(O)[C@H](CCC(=O)[*:2])N[*:1]; NMeY = CN[C@@H](Cc1ccc(O)cc1)C(=O)O; AEEA = NCCOCCOCC(=O)O; Aib = CC(C)(N)C(=O)O

Common to all, as to test: cell-based or functional assay
The target in test [1] is T1, full-length human GIPR with an N-terminal FLAG tag (human, UniProt P48546 22-466).
T1 sequence (looked up): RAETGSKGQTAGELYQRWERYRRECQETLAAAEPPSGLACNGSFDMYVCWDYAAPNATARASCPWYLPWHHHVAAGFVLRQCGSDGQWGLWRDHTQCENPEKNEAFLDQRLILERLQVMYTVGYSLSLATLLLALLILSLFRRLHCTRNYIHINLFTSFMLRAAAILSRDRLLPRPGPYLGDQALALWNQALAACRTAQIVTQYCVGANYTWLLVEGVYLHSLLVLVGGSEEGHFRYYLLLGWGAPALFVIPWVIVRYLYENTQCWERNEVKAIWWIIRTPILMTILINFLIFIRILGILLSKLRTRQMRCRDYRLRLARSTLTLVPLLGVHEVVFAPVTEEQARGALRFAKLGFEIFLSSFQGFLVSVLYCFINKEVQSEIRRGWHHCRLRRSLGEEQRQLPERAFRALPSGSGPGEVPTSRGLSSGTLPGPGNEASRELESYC

Test [2] concerns the target full-length human GLP-1R with an N-terminal FLAG tag (human, UniProt P43220 24-463).
Test [3] has as its target T2, full-length human GIPR with an N-terminal FLAG tag, overexpressed on HEK-293T cells (human, UniProt P48546 22-466).
T2 sequence (looked up): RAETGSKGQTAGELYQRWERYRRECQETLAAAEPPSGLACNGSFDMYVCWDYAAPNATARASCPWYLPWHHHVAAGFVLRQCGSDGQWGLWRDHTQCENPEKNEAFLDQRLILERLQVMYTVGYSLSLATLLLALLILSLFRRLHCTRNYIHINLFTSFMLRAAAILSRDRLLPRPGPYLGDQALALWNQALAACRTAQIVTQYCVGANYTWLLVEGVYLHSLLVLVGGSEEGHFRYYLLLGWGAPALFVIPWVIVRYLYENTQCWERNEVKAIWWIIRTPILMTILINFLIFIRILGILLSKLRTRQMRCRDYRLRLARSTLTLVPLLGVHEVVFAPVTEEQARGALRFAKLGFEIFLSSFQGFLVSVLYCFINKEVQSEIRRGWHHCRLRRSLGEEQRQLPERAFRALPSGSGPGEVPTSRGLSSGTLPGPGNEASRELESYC

Test [4] deals with full-length human GLP-1R with an N-terminal FLAG tag, overexpressed on HEK-293T cells (human, UniProt P43220 24-463).
Chain of full-length human GLP-1R with an N-terminal FLAG tag, overexpressed on HEK-293T cells (P43220 24-463): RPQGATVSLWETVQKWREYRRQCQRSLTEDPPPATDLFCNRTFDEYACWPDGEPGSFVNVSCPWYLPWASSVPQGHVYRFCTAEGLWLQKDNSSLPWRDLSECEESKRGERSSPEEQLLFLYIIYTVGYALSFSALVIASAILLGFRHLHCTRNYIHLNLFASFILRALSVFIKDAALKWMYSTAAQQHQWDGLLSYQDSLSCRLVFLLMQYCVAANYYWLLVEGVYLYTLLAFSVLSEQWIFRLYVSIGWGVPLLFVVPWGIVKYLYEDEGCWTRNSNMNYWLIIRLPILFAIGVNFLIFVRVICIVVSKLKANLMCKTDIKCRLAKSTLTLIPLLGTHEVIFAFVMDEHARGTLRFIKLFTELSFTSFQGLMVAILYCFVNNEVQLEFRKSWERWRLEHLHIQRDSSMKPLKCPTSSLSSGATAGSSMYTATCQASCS

For [NMeY][Aib]EGTFISDYSIAK([AEEA-γGlu-γGlu-γGlu-C15 diacid])DR[Aib]AQ[Aib]NFVNWLL[Aib]QK-OH (not fully specified) [Compound 38], in test [1], the “Human GIPR cAMP, HEK293T EC50” value amounted to 0.2 pM. Further, the “Human GLP1R cAMP HEK293T EC50” value in test [2] was determined as 525000 pM. Consider Me-Y[Aib]EGTFISDYSIALDR[Aib]AQ[Aib]KFVNWLLAQKG-OH (not fully specified (residues 1, 21)) [Compound 204], for which the “Human GIPR cAMP, HEK293T EC50” value in test [3] is 0.8 pM. Take [NMeY][Aib]EGTFISDYSIALDR[Aib]AQ[Aib]NFVNWLLAQK([G2E3-C15 diacid])PSSGAPPPS-OH [Compound 32]: in test [1], the “Human GIPR cAMP, HEK293T EC50” value came out at 0.2 pM. The “Human GLP1R cAMP HEK293T EC50” value in test [2] was found to be 4730 pM.

B1: Compound 191 (peptide)
peptide: YXEGTFTSDYSIYLDKQAAXEFVNWLLAGGPSSGAPPPSX
modifications: not fully specified; no N-terminal group printed; Aib at 2, 20; Km = Lys(R) at 40, linker not given, lipid C16; C-terminal NH2
Regarding B1, the “Human GIPR cAMP, HEK293T EC50” value in test [3] is 4.9 pM.

In the case of [NMeY][Aib]EGTFISDYSIALDR[Aib]AQ[Aib]K([AEEA-γGlu-γGlu-γGlu-C15 diacid])FVNWLLA[Aib]K-OH (not fully specified) [Compound 45], the “Human GIPR cAMP, HEK293T EC50” value in test [1] turned out to be 0.3 pM. The “Human GLP1R cAMP HEK293T EC50” value in test [2] was 48400 pM. On to Me-Y[Aib]EGTFISDYSIALDR[Aib]AQ[Aib]KFVNWLLAQKG-OH (not fully specified (residues 1, 21)) [Compound 214], for which the “Human GIPR cAMP, HEK293T EC50” value in test [3] was determined as 0.3 pM.

B2: Compound 157 (peptide)
peptide: YXEGTFISDYSIAXDRXAQXDFVNWLLAQSPSSGAPG
modifications: N-terminal Me (Me-Tyr1); Aib at 2, 17, 20; Km = Lys(R) at 14, linker printed GS (read as G5 = GGGGG), lipid C15DA (C15 diacid); C-terminal OH
With B2, the “Human GIPR cAMP, HEK293T EC50” value in test [3] is 0.1 pM. Further, the “Human GLP1R cAMP HEK293T EC50” value in test [4] is 347000 pM. As for Me-Y[Aib]EGTFISDYSI[Aib]LDR[Aib]AQ[Aib]KFVNWLLAQRG-OH (not fully specified (residues 1, 21)) [Compound 208], in test [3], the “Human GIPR cAMP, HEK293T EC50” value was determined as 0.3 pM.

For [NMeY][Aib]EGTFISDYSIALDR[Aib]AQ[Aib]NFVNWLLAK([AEEA-AEEA-γGlu-C15 diacid])K-OH (not fully specified) [Compound 34], the “Human GIPR cAMP, HEK293T EC50” value in test [1] turned out to be 0.3 pM. Besides, the “Human GLP1R cAMP HEK293T EC50” value in test [2] is 117000 pM. Taken in the same sequence, the figures for [NMeY][Aib]EGTFISDYSIAK([G2E3-C15 diacid])DR[Aib]AQ[Aib]NFVNWLLAQK-NH2 [Compound 30] were 0.1 pM and 442000 pM. As for [NMeY][Aib]EGTFISDYSIAK([AEEA-γGlu-γGlu-γGlu-C15 diacid])DR[Aib]AQ[Aib]NFVNWLLA[Aib]K-OH (not fully specified) [Compound 39], the “Human GIPR cAMP, HEK293T EC50” value in test [1] was 0.5 pM. In addition, the “Human GLP1R cAMP HEK293T EC50” value in test [2] worked out at 398000 pM. The like results for [NMeY][Aib]EGTFISDYSIALDR[Aib]K([AEEA-γGlu-γGlu-γGlu-C15 diacid])Q[Aib]NFVNWLLAQK (not fully specified (N-terminus)) [Compound 44] were, in that order, 0.4 pM and 631000 pM. The like results for [NMeY][Aib]EGTFTSDYSIYK([AEEA-AEEA-γGlu-C15 diacid])DR[Aib]AQ[Aib]NFVNWLLAQRPSSGAPPPS-OH (not fully specified) [Compound 46] were, in that order, 0.2 pM and 144 pM.

B3: Compound 41 (peptide)
peptide: Y[Aib]EGTFISDYSIALDR[Aib]AQ[Aib]NFVNWLLAQK([G2E3-C15 diacid])
modifications: not fully specified (residue 1, N-terminus); also: Me-Tyr methyl position not given here
With B3, the “Human GIPR cAMP, HEK293T EC50” value in test [1] worked out at 0.4 pM. In addition, the “Human GLP1R cAMP HEK293T EC50” value in test [2] is 112000 pM.

Take Me-Y[Aib]EGTFISDYSI[Aib]LDR[Aib]AQ[Aib]K([2OEG-γGlu-γGlu-C15 diacid])FVNWLLAQRG-OH [Compound 207]: the “Human GIPR cAMP, HEK293T EC50” value in test [3] is 0.4 pM. Turning to [NMeY][Aib]EGTFISDYSIALDR[Aib]K([G2E3-C15 diacid])Q[Aib]NFVNWLLAQK-OH (not fully specified (N-terminus)) [Compound 42], in test [1], the “Human GIPR cAMP, HEK293T EC50” value was found to be 0.6 pM. Moreover, in test [2], the “Human GLP1R cAMP HEK293T EC50” value came out at 237000 pM.

B4: Compound 159 (peptide)
peptide: YXEGTFISDYSIAXDRXAQXDFVNWLLAQSPG
modifications: N-terminal Me (Me-Tyr1); Aib at 2, 17, 20; Km = Lys(R) at 14, linker printed GS (read as G5 = GGGGG), lipid C15DA (C15 diacid); C-terminal OH
On to B4, for which, in test [3], the “Human GIPR cAMP, HEK293T EC50” value turned out to be 0.2 pM. Also, the “Human GLP1R cAMP HEK293T EC50” value in test [4] is 145000 pM.

B5: Compound 160 (peptide)
peptide: YXEGTFISDYSIAXDRXAQXNFVNWLLAQSG
modifications: N-terminal Me (Me-Tyr1); Aib at 2, 17, 20; Km = Lys(R) at 14, linker printed GS (read as G5 = GGGGG), lipid C15DA (C15 diacid); C-terminal OH
As to B5, the “Human GIPR cAMP, HEK293T EC50” value in test [3] was determined as 0.3 pM. Also, the “Human GLP1R cAMP HEK293T EC50” value in test [4] is 24000 pM. For the molecule [NMeY][Aib]EGTFISDYSIALDRK([AEEA-AEEA-γGlu-C15 diacid])HQ[Aib]NFVNWLLAQS-OH (also: Me-Tyr methyl position not given here) [Compound 37], the “Human GIPR cAMP, HEK293T EC50” value in test [1] worked out at 0.2 pM. For the same molecule, the “Human GLP1R cAMP HEK293T EC50” value in test [2] turned out to be 43700 pM.

B6: Compound 36 (peptide)
peptide: YXEGTFISDYSIALDKXHQXDFVNWLLAXK
modifications: not fully specified; Me-Tyr1; Aib 2,17,20; Km29 = Lys(2OEGgE-C15DA); position 21 printed 'O' in Table 3; C-term OH
As for B6, the “Human GIPR cAMP, HEK293T EC50” value in test [1] stood at 1 pM. In test [2], the “Human GLP1R cAMP HEK293T EC50” value came to 25100 pM. Consider [NMeY][Aib]EGTFISDYSIALDR[Aib]AQ[Aib]K([AEEA-γGlu-γGlu-γGlu-C15 diacid])FVNWLL[Aib]QK-OH (not fully specified) [Compound 40], for which the “Human GIPR cAMP, HEK293T EC50” value in test [1] was found to be 0.8 pM. Also, the “Human GLP1R cAMP HEK293T EC50” value in test [2] was determined as 115000 pM.

B7: Compound 43 (peptide)
peptide: Y[Aib]EGTFISDYSIALDR[Aib]AQ[Aib]NFVNWLLAQK([AEEA-γGlu-γGlu-γGlu-C15 diacid])
modifications: not fully specified (residue 1, N-terminus); also: Me-Tyr methyl position not given here
As to B7, the “Human GIPR cAMP, HEK293T EC50” value in test [1] was found to be 0.3 pM. In test [2], the “Human GLP1R cAMP HEK293T EC50” value turned out to be 174000 pM. The like results for [NMeY][Aib]EGTFISDYSIALDRK([AEEA-AEEA-γGlu-C15 diacid])HQ[Aib]NFVNWLLAQRPSSGAPPPS-OH (also: Me-Tyr methyl position not given here) [Compound 47] were, in that order, 0.3 pM and 110000 pM. The like results for [NMeY][Aib]EGTFISDYSIALDR[Aib]AQ[Aib]K([G2E3-C15 diacid])FVNWLLAQK-NH2 [Compound 31] were, in that order, 0.2 pM and 776 pM.

B8: Compound 28 (peptide)
peptide: [NMeY][Aib]EGTFISDYSIAK([AEEA-γGlu-γGlu-γGlu-C15 diacid])DR[Aib]AQ[Aib]NFVNWLL[Aib]QK-NH2
modifications: N-terminus assumed
SMILES: CC[C@H](C)[C@H](NC(=O)[C@H](CO)NC(=O)[C@H](Cc1ccc(O)cc1)NC(=O)[C@H](CC(=O)O)NC(=O)[C@H](CO)NC(=O)[C@@H](NC(=O)[C@H](Cc1ccccc1)NC(=O)[C@@H](NC(=O)CNC(=O)[C@H](CCC(=O)O)NC(=O)C(C)(C)NC(=O)[C@H](Cc1ccc(O)cc1)NC)[C@@H](C)O)[C@@H](C)CC)C(=O)N[C@@H](C)C(=O)N[C@@H](CCCCNC(=O)COCCOCCNC(=O)CC[C@H](NC(=O)CC[C@H](NC(=O)CC[C@H](NC(=O)CCCCCCCCCCCCCC(=O)O)C(=O)O)C(=O)O)C(=O)O)C(=O)N[C@@H](CC(=O)O)C(=O)N[C@@H](CCCNC(=N)N)C(=O)NC(C)(C)C(=O)N[C@@H](C)C(=O)N[C@@H](CCC(N)=O)C(=O)NC(C)(C)C(=O)N[C@@H](CC(N)=O)C(=O)N[C@@H](Cc1ccccc1)C(=O)N[C@H](C(=O)N[C@@H](CC(N)=O)C(=O)N[C@@H](Cc1c[nH]c2ccccc12)C(=O)N[C@@H](CC(C)C)C(=O)N[C@@H](CC(C)C)C(=O)NC(C)(C)C(=O)N[C@@H](CCC(N)=O)C(=O)N[C@@H](CCCCN)C(N)=O)C(C)C
With B8, the “Human GIPR cAMP, HEK293T EC50” value in test [1] was 0.1 pM. Further, the “Human GLP1R cAMP HEK293T EC50” value in test [2] worked out at 60300 pM.

B9: Compound 158 (peptide)
peptide: YXEGTFISDYSIAXDRXAQXDFVNWLLAQSPSSG
modifications: N-terminal Me (Me-Tyr1); Aib at 2, 17, 20; Km = Lys(R) at 14, linker printed GS (read as G5 = GGGGG), lipid C15DA (C15 diacid); C-terminal OH
Consider B9, for which the “Human GIPR cAMP, HEK293T EC50” value in test [3] was 0.2 pM. The “Human GLP1R cAMP HEK293T EC50” value in test [4] came to 245000 pM.
